Measurements taken from article PMC4858151, “Phosphorylation of Human Choline Kinase Beta by Protein Kinase A: Its Impact on Activity and Inhibition” (PLoS ONE, 2016).

B1: choline kinase beta (CKβ) (Homo sapiens) (protein)
chain: AAEATAVAGSGAVGGCLAKDGLQQSKCPDTTPKRRRASSLSRDAERRAYQWCREYLGGAWRRVQPEELRVYPVSGGLSNLLFRCSLPDHLPSVGEEPREVLLRLYGAILQGVDSLVLESVMFAILAERSLGPQLYGVFPEGRLEQYIPSRPLKTQELREPVLSAAIATKMAQFHGMEMPFTKEPHWLFGTMERYLKQIQDLPPTGLPEMNLLEMYSLKDEMGNLRKLLESTPSPVVFCHNDIQEGNILLLSEPENADSLMLVDFEYSSYNYRGFDIGNHFCEWVYDYTHEEWPFYKARPTDYPTQEQQLHFIRHYLAEAKKGETLSQEEQRKLEEDLLVEVSRYALASHFFWGLWSILQASMSTIEFGYLDYAQSRFQFYFQQKGQLTSVHSSS
notes: purified recombinant unphosphorylated CKβ
B2: choline kinase beta (CKβ) (Homo sapiens; S39D/S40D) (protein)
chain: AAEATAVAGSGAVGGCLAKDGLQQSKCPDTTPKRRRADDLSRDAERRAYQWCREYLGGAWRRVQPEELRVYPVSGGLSNLLFRCSLPDHLPSVGEEPREVLLRLYGAILQGVDSLVLESVMFAILAERSLGPQLYGVFPEGRLEQYIPSRPLKTQELREPVLSAAIATKMAQFHGMEMPFTKEPHWLFGTMERYLKQIQDLPPTGLPEMNLLEMYSLKDEMGNLRKLLESTPSPVVFCHNDIQEGNILLLSEPENADSLMLVDFEYSSYNYRGFDIGNHFCEWVYDYTHEEWPFYKARPTDYPTQEQQLHFIRHYLAEAKKGETLSQEEQRKLEEDLLVEVSRYALASHFFWGLWSILQASMSTIEFGYLDYAQSRFQFYFQQKGQLTSVHSSS
notes: purified S39D/S40D CKβ

How the values were obtained:
Type in all cases: biochemical, Homo sapiens
[1] = substrate: C[N+](C)(C)CCO; assay: Michaelis-Menten kinetics (Km), PK-LDH coupled assay; details: MgCl2, ATP choline binding site
[2] = substrate: NCCO; assay: as above; details: MgCl2, ATP
[3] = substrate: Nc1ncnc2c1ncn2[C@@H]1O[C@H](COP(=O)(O)OP(=O)(O)OP(=O)(O)O)[C@@H](O)[C@H]1O; assay: purified protein; details: MgCl2

| Protein | Km [1] [µM] | Vmax [1] [µmol/min/mg] | kcat [1] [s⁻¹] | kcat/Km [1] [M⁻¹ s⁻¹] | Km [2] [µM] | Vmax [2] [µmol/min/mg] | Km [3] [µM] | Vmax [3] [µmol/min/mg] | kcat [3] [s⁻¹] | kcat/Km [3] [M⁻¹ s⁻¹] | kcat [2] [s⁻¹] | kcat/Km [2] [M⁻¹ s⁻¹] |
| --- | --- | --- | --- | --- | --- | --- | --- | --- | --- | --- | --- | --- |
| B1 | 420 ± 60 | 64.3 | 48.2 | 115000 | 260 ± 10 | 14.3 | 650 ± 30 | 72.5 | 21.5 | 39100 | – | – |
| B2 | 460 ± 60 | 60.4 | 45.3 | 98500 | 570 ± 20 | 28.4 | 585.3 ± 30 | 67.3 | 21.3 | 37400 | 45.3 | 98500 |
